These results are taken from patent US20040087497.

The test system of series [1] is T1, Suc-Leu-Ala-Leu-Dox.
T1 sequence: XAX

Series [2] concerns T2, Suc-Met-Ala-Leu-Dox.
T2 sequence: XAX

Series [3] deals with T3, Suc-Leu-Tyr-Leu-Dox.
T3 sequence: XYX

Series [4] concerns T4, Suc-βAla-Leu-Ala-Leu-Dox.
T4 sequence: XLAX

The subject of series [5] is T5, Suc-Leu-Ala-Gly-Dox.
T5 sequence: XAX

The test system of series [6] is T6, Suc-βAla-Leu-Tyr-Leu-Dox.
T6 sequence: XLYX

In series [7] the test system is T7, Suc-βAla-Leu-Ala-Leu-pNA.
T7 sequence: XLAX

The subject of series [8] is T8, Suc-βAla-Ile-Ala-Leu-Dox.
T8 sequence: XIAX

In series [9] the test system is T9, Suc-Ile-Ala-Leu-Dox.
T9 sequence: XAX

Where [10] appears, read: scale: fraction relative to Suc-βAla-Leu-Ala-Leu-Dox.

On to “purified Porcine Kidney CD10 (Elastin Products Company)”, for which the % hydrolysis/10 hr (% hydrolysis/10 hr) in [1] amounted to 8.3; in [2], 37.7; in series [3], 0; in series [4] it was 10.9; in [5], 0; in series [6], 0. For the same substance, the % hydrolysis/10 hr (% hydrolysis/10 hr) in [8] was determined as 22.1; in series [9] it was 12.5. Further, the “Cleaved by CD10” value is recorded as “+” in series [1]; “+” in series [4]; “-” in series [5]; “+” in [8]; “+” in series [9]. Besides, the Fraction hydrolyzed relative to standard in series [1] (setting [10]) is 0.75; in series [2] (setting [10]), 3.5; in series [3] (setting [10]) it was 0; in series [4] (setting [10]), 1; in series [5] (setting [10]) it was 0; in [6] (setting [10]), 0. For the same substance, the Fraction hydrolyzed relative to standard in series [8] (setting [10]) is 2; in [9] (setting [10]), 1.1. The “rate of cleavage (release of Leu-pNA) relative to Suc-βAla-Leu-Ala-Leu-Dox (release of Leu-Dox)” value in series [7] was 590 times more rapidly cleaved.

Regarding thimet oligopeptidase, the “Cleavage by thimet oligopeptidase” value in series [1] is listed as “+”; in series [4] it was “+”; in [5] it was “+”; in series [8], “-”; in [9], “-”.
